# Assay results: US20160002357A1 (Pfizer, published 2016)
# Where a chain is given by its changes, count along the chain named. “And” between values parts separate entries of the source, which are not always exact repeats. Equal values may be shown once. Read-outs that look alike come from different tables or passages of the source.
# T1: muP-cad-ECD (murine, UniProt P10287 100-647)
# T1 construct: extracellular domain; also called murine P-cadherin; murine P-cadherin ECD
# T1 sequence (looked up): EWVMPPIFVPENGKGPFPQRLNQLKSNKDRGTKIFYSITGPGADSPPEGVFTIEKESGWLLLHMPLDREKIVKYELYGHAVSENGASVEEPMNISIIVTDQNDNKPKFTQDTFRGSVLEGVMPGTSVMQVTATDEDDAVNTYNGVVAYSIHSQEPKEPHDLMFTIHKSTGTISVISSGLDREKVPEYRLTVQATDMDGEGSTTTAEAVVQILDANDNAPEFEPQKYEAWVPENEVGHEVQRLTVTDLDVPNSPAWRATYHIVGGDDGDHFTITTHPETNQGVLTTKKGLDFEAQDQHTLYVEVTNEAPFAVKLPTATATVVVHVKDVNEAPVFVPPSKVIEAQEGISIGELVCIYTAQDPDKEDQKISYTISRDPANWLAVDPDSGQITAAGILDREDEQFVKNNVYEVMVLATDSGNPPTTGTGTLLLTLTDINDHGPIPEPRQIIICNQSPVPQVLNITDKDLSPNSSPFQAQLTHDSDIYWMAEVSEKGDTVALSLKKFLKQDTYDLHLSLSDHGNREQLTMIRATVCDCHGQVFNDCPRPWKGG
# B1: 153 VF-DART (bispecific antibody)
# chain 1: QSVLTQPPSVSAAPGQKVTISCSGSSSNIGNNYVSWYQQLPGTAPKLLIYDNNKRPSGIPDRFSGSKSGTSATLGITGLQTGDEADYYCGTWDSSLSGVVFGGGTKLTVLGGGSGGGGEVQLVESGGGLVQPGGSLRLSCAASGFTFSTYAMNWVRQAPGKGLEWVGRIRSKYNNYATYYADSVKGRFTISRDDSKNSLYLQMNSLKTEDTAVYYCVRHGNFGNSYVSWFAYWGQGTLVTVSS
# chain 2: QAVVTQEPSLTVSPGGTVTLTCRSSTGAVTTSNYANWVQQKPGQAPRGLIGGTNKRAPWTPARFSGSLLGGKAALTITGAQAEDEADYYCALWYSNLWVFGGGTKLTVLGGGGSGGGGEVQLVQSGAEVKKPGASVKVSCKASGYTFTSYGISWVRQAPGQGLEWMGWISAYNGNTNYAQKLQGRVTMTTDTSTSTAYMELRSLRSDDTAVYYCATIDTANAFGIWGQGTMVTVSS
# modifications: One interchain disulfide between the Linker 2 cysteines; these linkers are left out of the letters.
# notes: not shown: The C-terminal cysteine Linker 2 on each chain
# B2: 35 EK-DART (bispecific antibody)
# chain 1: QSVLTQPPSVSAAPGQKVTISCSGSSSNIGNNYVSWYQQLPGTAPKLLIYDNNKRPSGIPDRFSGSKSGTSATLGITGLQTGDEADYYCGTWDSSLSAVVFGGGTKLTVLGGGSGGGGEVQLVESGGGLVQPGGSLRLSCAASGFTFNTYAMNWVRQAPGKGLEWVARIRSKYNNYATYYADSVKDRFTISRDDSKNSLYLQMNSLKTEDTAVYYCVRHGNFGNSYVSWFAYWGQGTLVTVSSGGCGGGKVAALKEKVAALKEKVAALKEKVAALKE
# chain 2: QAVVTQEPSLTVSPGGTVTLTCRSSTGAVTTSNYANWVQQKPGQAPRGLIGGTNKRAPWTPARFSGSLLGGKAALTITGAQAEDEADYYCALWYSNLWVFGGGTKLTVLGGGGSGGGGEVQLVQSGAEVKKPGASVKVSCKASGYTFTSYGISWVRQAPGQGLEWMGWISAYNGNTNYAQKLQGRVTMTTDTSTSTAYMELRSLRSDDTAVYYCATIDTASAFDIWGQGTMVTVSSGGCGGGEVAALEKEVAALEKEVAALEKEVAALEK
# notes: also called P-CAD 35 EK-DART (CD3-2); parental 35 EK-DART
# B3: 153 LP-DART (bispecific antibody)
# chain 1: QSVLTQPPSVSAAPGQKVTISCSGSSSNIGNNYVSWYQQLPGTAPKLLIYDNNKRPSGIPDRFSGSKSGTSATLGITGLQTGDEADYYCGTWDSSLSGVVFGGGTKLTVLGGGSGGGGEVQLVESGGGLVQPGGSLRLSCAASGFTFSTYAMNWVRQAPGKGLEWVGRIRSKYNNYATYYADSVKGRFTISRDDSKNSLYLQMNSLKTEDTAVYYCVRHGNFGNSYVSWFAYWGQGTLVTVSSGCPPCPAPEAAGAPSVFLFPPKPKDTLMISRTPEVTCVVVDVSHEDPEVKFNWYVDGVEVHNAKTKPREEQYNSTYRVVSVLTVLHQDWLNGKEYKCKVSNKALPAPIEKTISKAKGQPREPQVCTLPPSREEMTKNQVSLWCLVKGFYPSDIAVEWESNGQPENNYKTTPPVLDSDGSFFLYSKLTVDKSRWQQGNVFSCSVMHEALHNHYTQKSLSLSPG
# chain 2: QAVVTQEPSLTVSPGGTVTLTCRSSTGAVTTSNYANWVQQKPGQAPRGLIGGTNKRAPWTPARFSGSLLGGKAALTITGAQAEDEADYYCALWYSNLWVFGGGTKLTVLGGGGSGGGGEVQLVQSGAEVKKPGASVKVSCKASGYTFTSYGISWVRQAPGQGLEWMGWISAYNGNTNYAQKLQGRVTMTTDTSTSTAYMELRSLRSDDTAVYYCATIDTANAFGIWGQGTMVTVSSGCPPCPAPEAAGAPSVFLFPPKPKDTLMISRTPEVTCVVVDVSHEDPEVKFNWYVDGVEVHNAKTKPREEQYNSTYRVVSVLTVLHQDWLNGKEYKCKVSNKALPAPIEKTISKAKGQPREPQVYTLPPCREEMTKNQVSLSCAVKGFYPSDIAVEWESNGQPENNYKTTPPVLDSDGSFFLVSKLTVDKSRWQQGNVFSCSVMHEALHNHYTQKSLSLSPG
# B4: 154 LP-DART (bispecific antibody)
# chain 1: B3 chain 1 with G98S, V99Y, G103T, L107V
# chain 2: B3 chain 2 with N221T, G224D
# B5: 154 VF-DART (bispecific antibody, not shown: small tags and cut ends)
# chain 1: B1 chain 1 with G98S, V99Y, G103T, L107V
# chain 2: B1 chain 2 with N221T, G224D
# B6: 35 scFv-Fc (Fc fusion)
# VH: EVQLVQSGAEVKKPGASVKVSCKASGYTFTSYGISWVRQAPGQGLEWMGWISAYNGNTNYAQKLQGRVTMTTDTSTSTAYMELRSLRSDDTAVYYCATIDTASAFDIWGQGTMVTVSS
# VL: QSVLTQPPSVSAAPGQKVTISCSGSSSNIGNNYVSWYQQLPGTAPKLLIYDNNKRPSGIPDRFSGSKSGTSATLGITGLQTGDEADYYCGTWDSSLSAVVFGGGTKLTVL
# notes: also called P-CAD 35; P-cadherin clone 35 scFv-Fc
# B7: 33 scFv-Fc (Fc fusion)
# VH: B6 VH with E1Q, V2M, T98L, D100G, T101S, A102G, S103V
# VL: B6 VL with V99Y, G103T, L107V
# notes: also called P-CAD 33; P-cadherin clone 33 scFv-Fc
# B8: 34 scFv-Fc (Fc fusion)
# VH: B6 VH
# VL: B6 VL with L4V, V99W
# notes: also called P-CAD 34; P-cadherin clone 34 scFv-Fc
# What was measured:
# [1] = biological target: T2, cynomolgus monkey P-cadherin ECD (cynomolgus monkey); test: SPR Biacore pH 7.4
# T2 construct: extracellular domain; also called cyno P-cadherin ECD; Cyno P-cadherin
# [2] = biological target: T3, human P-cadherin expressed on the cell surface (human, UniProt P22223 108-829); test: cell-based or functional assay
# T3 sequence (P22223 108-829): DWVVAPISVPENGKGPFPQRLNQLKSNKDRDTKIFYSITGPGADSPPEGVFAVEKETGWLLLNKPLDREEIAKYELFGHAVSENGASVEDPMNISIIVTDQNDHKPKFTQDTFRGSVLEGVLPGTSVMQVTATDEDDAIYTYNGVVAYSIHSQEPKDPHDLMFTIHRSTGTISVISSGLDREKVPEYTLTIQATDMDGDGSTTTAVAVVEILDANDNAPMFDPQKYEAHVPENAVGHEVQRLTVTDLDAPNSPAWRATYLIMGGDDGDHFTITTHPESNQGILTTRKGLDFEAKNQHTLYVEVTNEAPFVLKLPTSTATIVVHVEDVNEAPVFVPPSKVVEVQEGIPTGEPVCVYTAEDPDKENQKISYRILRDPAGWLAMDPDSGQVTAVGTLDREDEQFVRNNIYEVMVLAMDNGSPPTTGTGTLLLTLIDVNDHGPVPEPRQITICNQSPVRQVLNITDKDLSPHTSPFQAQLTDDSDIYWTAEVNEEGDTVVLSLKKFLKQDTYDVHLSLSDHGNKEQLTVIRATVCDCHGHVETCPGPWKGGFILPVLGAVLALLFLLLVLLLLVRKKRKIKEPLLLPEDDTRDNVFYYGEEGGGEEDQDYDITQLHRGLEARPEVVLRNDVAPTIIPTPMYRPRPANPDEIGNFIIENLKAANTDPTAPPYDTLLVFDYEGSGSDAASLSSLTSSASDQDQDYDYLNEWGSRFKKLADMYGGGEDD
# [3] = biological target: T2, cynomolgus monkey P-cadherin ECD; test: SPR Biacore pH 7.4, average
# [4] = biological target: T2, cynomolgus monkey P-cadherin ECD; test: SPR Biacore affinity
# Hu P-cadherin-Fc = biological target: T4, Hu P-cadherin-Fc (human, UniProt P22223 108-654, limits assumed); test: ELISA
# T4 construct: also called recombinant human P-cadherin-Fc; human P-cadherin-Fc; not shown: Fc
# T4 sequence (P22223 108-654 limits assumed): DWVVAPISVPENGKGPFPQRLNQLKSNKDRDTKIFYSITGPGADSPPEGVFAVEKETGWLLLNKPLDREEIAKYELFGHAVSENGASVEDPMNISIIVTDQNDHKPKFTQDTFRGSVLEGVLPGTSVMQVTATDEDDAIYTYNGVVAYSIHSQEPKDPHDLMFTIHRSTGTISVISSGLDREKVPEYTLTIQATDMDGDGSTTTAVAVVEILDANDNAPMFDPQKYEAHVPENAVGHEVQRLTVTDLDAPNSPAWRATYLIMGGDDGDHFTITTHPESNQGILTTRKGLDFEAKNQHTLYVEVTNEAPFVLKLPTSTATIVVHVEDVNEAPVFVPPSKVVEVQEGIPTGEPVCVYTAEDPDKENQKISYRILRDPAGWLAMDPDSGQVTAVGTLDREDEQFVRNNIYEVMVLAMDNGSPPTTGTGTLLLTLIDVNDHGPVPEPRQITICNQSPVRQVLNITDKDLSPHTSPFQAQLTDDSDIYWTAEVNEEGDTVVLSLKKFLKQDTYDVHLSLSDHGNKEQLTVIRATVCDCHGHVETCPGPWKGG
# [5] = biological target: T2, cynomolgus monkey P-cadherin ECD; test: SPR Biacore 3000, antigen immobilised
# Procedure: (§1) Binding affinity of EK-DART proteins to P-cadherin and CD3 was analyzed by SPR using a BIACORE® 3000 biosensor (GE Healthcare). The antigens huCD3εδ and either human P-cadherin-Fc or human/cynomolgus monkey/murine P-cadherin-ECD were immobilized on the CM-5 sensor chip by amine coupling kit as recommended by the manufacturer. […] All EK-DART proteins in Tables 15 and 16 comprise CD3-2.
# [6] = biological target: T3, human P-cadherin expressed on the cell …; test: cell-based or functional assay; remark: listed apart in the source
# [7] = biological target: T3, human P-cadherin expressed on the cell …; test: cell ELISA, H1650 cells
# [8] = biological target: T2, cynomolgus monkey P-cadherin ECD; test: SPR
# [9] = biological target: T2, cynomolgus monkey P-cadherin ECD; test: SPR Biacore
# Procedure: as §1
# All EK-DART proteins in Table 17 comprise CD3-2.
# P-cadherin ECD1-2-Fc = biological target: T5, P-cadherin ECD1-2-Fc (human, UniProt P22223 108-328); test: protein ELISA
# T5 construct: Signal peptide and pro-peptide of the construct left out (see ECD1-Fc); not shown: cleavable linker; hinge and CH2 and CH3 domains of human IgG1
# T5 sequence (P22223 108-328): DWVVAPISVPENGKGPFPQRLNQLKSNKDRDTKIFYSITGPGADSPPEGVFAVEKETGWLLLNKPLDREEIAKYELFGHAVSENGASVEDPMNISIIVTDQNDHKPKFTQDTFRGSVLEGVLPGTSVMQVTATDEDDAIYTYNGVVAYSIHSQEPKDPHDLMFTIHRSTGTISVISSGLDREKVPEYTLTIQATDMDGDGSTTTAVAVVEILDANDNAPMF
# P-cadherin ECD1-Fc = biological target: T6, P-cadherin ECD1-Fc (human, UniProt P22223 108-215); test: protein ELISA
# T6 construct: PACE was co-transfected for processing of the propeptide, so both are left out here; not shown: cleavable linker; hinge and CH2 and CH3 domains of human IgG1
# T6 sequence (P22223 108-215): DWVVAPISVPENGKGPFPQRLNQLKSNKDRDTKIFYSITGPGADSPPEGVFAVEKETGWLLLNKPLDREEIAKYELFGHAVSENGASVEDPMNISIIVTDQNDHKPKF
# [10] = biological target: T2, cynomolgus monkey P-cadherin ECD; test: SPR Biacore, average
# [11] = biological target: T2, cynomolgus monkey P-cadherin ECD; test: SPR Biacore; remark: listed apart in the source
# [12] = biological target: T2, cynomolgus monkey P-cadherin ECD; test: SPR Biacore affinity; remark: listed apart in the source
# [13] = biological target: T3, human P-cadherin expressed on the cell …; test: cell-based or functional assay; remark: listed apart in the source
# [14] = biological target: T3, human P-cadherin expressed on the cell …; test: cell-based or functional assay; remark: listed apart in the source
# muP-cad-ECD [15] = biological target: T1, muP-cad-ECD; test: SPR Biacore
# huP-cad-ECD biotinylated = biological target: T7, huP-cad-ECD biotinylated (human, UniProt P22223 108-654, biotinylated (sites not given)); test: ELISA, recombinant protein
# T7 construct: extracellular domain
# T7 sequence (P22223 108-654): as the sequence (P22223 108-654 limits assumed) above
# huP-cad-ECD = biological target: T8, huP-cad-ECD (human, UniProt P22223 108-654); test: ELISA, recombinant protein
# T8 construct: extracellular domain; also called recombinant human P-cadherin; human P-cadherin-ECD
# T8 sequence (P22223 108-654): as the sequence (P22223 108-654 limits assumed) above
# muP-cad-ECD [16] = biological target: T1, muP-cad-ECD; test: ELISA, recombinant protein
# [17] = biological target: T3, human P-cadherin expressed on the cell …; test: cell ELISA, CHO-huPcad cells
# [18] = biological target: T3, human P-cadherin expressed on the cell …; test: cell ELISA, H1650 cells; remark: listed apart in the source
# [19] = biological target: T3, human P-cadherin expressed on the cell …; test: cell ELISA, SW480-huPcad cells
binder,measurement,setting,value
B1,Kd,[1],0.332 nM and 0.304 nM
same,koff,[1],0.00024 s⁻¹ and 0.000229 s⁻¹
same,kon,[1],722000 M⁻¹ s⁻¹ and 752000 M⁻¹ s⁻¹
same,t½,[1],45.4 min and 47.6 min
same,DU145 CTL (LDH) EC50,[2],0.0004 nM
same,HCT116 CTL (Luc) EC50,[2],0.0005 nM
same,Kd,[3],0.318 nM
same,Kd,[4],0.31 nM
B2,EC50,Hu P-cadherin-Fc,1.92 nM
same,Kd,[5],43.4 nM
same,koff,[5],0.0138 s⁻¹
same,kon,[5],318000 M⁻¹ s⁻¹
same,T cell Cytotoxicity,[6],0.33 nM
same,EC50,[7],24.9 nM
same,Kd,[8],42.8 nM
same,Kd,[9],35 nM
same,koff,[9],0.0215 s⁻¹
same,kon,[9],614000 M⁻¹ s⁻¹
B3,Kd,[1],0.683 nM and 0.359 nM
same,koff,[1],0.0002 s⁻¹ and 0.000209 s⁻¹
same,kon,[1],293000 M⁻¹ s⁻¹ and 581000 M⁻¹ s⁻¹
same,t½,[1],54.4 min and 52.2 min
same,binding result,P-cadherin ECD1-2-Fc,no binding
same,binding result,P-cadherin ECD1-Fc,no binding
same,Kd,[10],0.521 nM
same,Kd,[11],0.683 nM and 0.359 nM
same,koff,[11],0.0002 s⁻¹ and 0.000209 s⁻¹
same,kon,[11],293000 M⁻¹ s⁻¹ and 581000 M⁻¹ s⁻¹
same,t½,[11],54.4 min and 52.2 min
same,Kd,[3],0.521 nM
same,Kd,[12],0.521 nM
same,DU145 CTL (LDH) EC50,[13],0.0006 nM
same,HCT116 CTL (Luc) EC50,[13],0.0004 nM
same,"CTL assay on CHO P-cadherin cells, cell viability after 48 hours, EC50",[14],0.00041 nM
same,binding result,muP-cad-ECD [15],no binding
B4,Kd,[10],5.5 nM
same,Kd,[11],5.47 nM and 5.53 nM
same,koff,[11],0.00332 s⁻¹ and 0.00343 s⁻¹
same,kon,[11],607000 M⁻¹ s⁻¹ and 620000 M⁻¹ s⁻¹
same,t½,[11],3.27 min and 3.18 min
same,Kd,[12],5.5 nM
same,DU145 CTL (LDH) EC50,[13],0.0017 nM
same,HCT116 CTL (Luc) EC50,[13],0.0072 nM
B5,DU145 CTL (LDH) EC50,[2],0.0024 nM
same,HCT116 CTL (Luc) EC50,[2],0.008 nM
same,Kd,[4],2.85 nM
B6,EC50,huP-cad-ECD biotinylated,0.0176 nM
same,EC50,huP-cad-ECD,2.5 nM
same,binding result,muP-cad-ECD [16],no binding
same,EC50,[17],0.276 nM
same,EC50,[18],0.163 nM
same,EC50,[19],0.173 nM
B7,EC50,huP-cad-ECD biotinylated,0.101 nM
same,EC50,huP-cad-ECD,3.46 nM
same,binding result,muP-cad-ECD [16],no binding
same,EC50,[17],0.493 nM
same,EC50,[18],0.567 nM
same,EC50,[19],0.424 nM
B8,EC50,huP-cad-ECD biotinylated,0.194 nM
same,EC50,huP-cad-ECD,11.2 nM
same,binding result,muP-cad-ECD [16],no binding
same,EC50,[17],0.394 nM
same,EC50,[18],0.494 nM
same,EC50,[19],0.442 nM
